Measured values from patent US8840891 (RSR, dated 2014).
Where a chain is given by its changes, count along the chain named.

B1: 16E5 IgG (antibody, V domains shown)
VH: DVQLVQSGPELVKPGASVKMSCKASGYSFTGYNMHWVKQSHGKSLEWIGYIDPYNGATSYNQKFEDKATLTVDKSSSTAYMQLNSLTSEDSAVYYCARRWDWDPYAMDYWGQGTSVTVSS
VL: DILLTQSPAILSVSPGERVSFSCRASQSIGTSIHWYQQRTNGSPRLLIKYASESISGIFSRFSGSGSGTDFTLTINSVESEDIADYYCQQSNRWPLTFGAGTKLELKR
B2: 17D2 IgG (antibody, V domains shown)
VH: B1 VH with L4I, V5Q, G31A, S40T, N55S, N61H, E65K, D66G, Q82R
VL: B1 VL with D1S, I2V, L3E, L4M, T5S, V19I, E53A, F59P, T74S, R93S
B3: 2B4 IgG (antibody, V domains shown)
VH: DVQLQQSGTVLARPGASVRMSCKASGYSFTRYWIHWLKQRPGQGLEWIGAIFPGNRDTSYNQRFKGKAEVTAVTSASTAYLDLSSLTNEDSAVYYCTRWPYYGSIYVNFDYWGQGTTLTVSS
VL: DIVMTQSPLSLPVSLGDQASISCRTSQNLVHRNGNTYLHWYLQKPGQSPKLLIYKISNRFSGVPDRFSGSGSGTDFTLKISRVEAEDLGVYFCSQGTHVPPTFGGGTKLEIKR

Experiments:
[1] = target: T1, TSHR coated onto tubes (human, UniProt P16473 21-764, limits assumed); assay: TSHR coated tubes, competitor 125I-5C9 IgG
T1 construct: whole entry named; also called TSHR coated tubes; thyrotropin receptor

[2] = target: T1, TSHR coated onto tubes; assay: TSHR coated tubes, competitor 125I-M22 IgG
[3] = target: T1, TSHR coated onto tubes; assay: TSHR coated tubes, competitor 125I-TSH

| Binder | % inhib of 125I-5C9 IgG binding at 0.01 µg/mL [1] [%] | % inhib of 125I-5C9 IgG binding at 0.1 µg/mL [1] [%] | % inhib of 125I-5C9 IgG binding at 1 µg/mL [1] [%] | % inhib of 125I-5C9 IgG binding at 10 µg/mL [1] [%] | % inhib of 125I-5C9 IgG binding at 100 µg/mL [1] [%] | % inhib of 125I-M22 IgG binding at 0.01 µg/mL [2] [%] | % inhib of 125I-M22 IgG binding at 0.1 µg/mL [2] [%] | % inhib of 125I-M22 IgG binding at 1 µg/mL [2] [%] | % inhib of 125I-M22 IgG binding at 10 µg/mL [2] [%] | % inhib of 125I-M22 IgG binding at 100 µg/mL [2] [%] | % inhib of 125I-TSH binding at 0.01 µg/mL [3] [%] | % inhib of 125I-TSH binding at 0.1 µg/mL [3] [%] | % inhib of 125I-TSH binding at 1 µg/mL [3] [%] | % inhib of 125I-TSH binding at 10 µg/mL [3] [%] | % inhib of 125I-TSH binding at 100 µg/mL [3] [%] |
| --- | --- | --- | --- | --- | --- | --- | --- | --- | --- | --- | --- | --- | --- | --- | --- |
| B1 | 20 | 34 | 47 | 53 | 59 | 12 | 22 | 40 | 51 | 53 | 9 | 26 | 39 | 44 | 48 |
| B2 | 3 | 11 | 26 | 43 | 55 | 1 | 13 | 24 | 39 | 49 | 3 | 7 | 24 | 43 | 56 |
| B3 | 8 | 23 | 42 | 48 | 72 | 1 | 12 | 9 | 19 | 30 | 13.5 | 56 | 82 | 85 | 88.5 |
